This passage reports self-aminoacylation results from the supplement of paper PMC9233669.

This sample holds only a part of the variants without activity.

One data set relates to biotinyl-Phe-oxazolone. In words: self-aminoacylation, catalytic enhancement (BFO) (fold over background); higher = more active; k-Seq, kA / k0A0; sequences stand for … in GGGAAUGGAUCCACAUCUACGAAUUC…UUCACUGCAGACUUGACGAAGCUG
The method in brief: (§1)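 Each biotinyl-aminoacyl-oxazolone, at 2–1250 μM, was incubated with mutagenized RNA pools (0.43 μM) carrying a 21-nt variable region. The 50 μL reactions contained HEPES/NaCl/KCl/MgCl2/CaCl2 buffer with 5% acetonitrile at pH 6.9–7.0 and ran for 90 minutes at room temperature. After streptavidin capture, RNA was measured by qPCR in triplicate and by Illumina sequencing, and catalytic enhancement was calculated as median kA over the uncatalyzed rate from a pseudo-first-order fit of per-sequence fraction reacted.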

A further data set concerns biotinyl-Trp-oxazolone. In words: self-aminoacylation, catalytic enhancement (BWO) (fold over background); higher = more active; k-Seq, kA / k0A0; sequences stand for … in GGGAAUGGAUCCACAUCUACGAAUUC…UUCACUGCAGACUUGACGAAGCUG
In a few lines: as §1

For “AUACUUCAAACAAUCGGUCGG [Fam1A.1 aminoacylation ribozyme variant]”, the self-aminoacylation with biotinyl-Phe-oxazolone turned out to be 5.46; with biotinyl-Trp-oxazolone, 4.83.
For the sequence “AUGUUUGCUAAUAGUCGUAAG [Fam3.1 aminoacylation ribozyme variant]”, the self-aminoacylation with biotinyl-Phe-oxazolone came out at 18.7; in the data set on biotinyl-Trp-oxazolone, 5.05.
For the sequence “AUUCAGCUAGGUCAUCGGGUC [Fam2.2 aminoacylation ribozyme variant]”, the self-aminoacylation in the data set on biotinyl-Phe-oxazolone is 13.5; in the data set on biotinyl-Trp-oxazolone, 3.24.
For “CAACACUUCAAGAAAUCGGUC [Fam1B.1 aminoacylation ribozyme variant]” the same measures were 7.2 and 5.88.
On the same counts, the results for “CAACUUCAAACAAUCAGUCUG [Fam1A.1 aminoacylation ribozyme variant]” are 29.7 and 11.2.
For “CAACUUCAAACAAUCCGUCUG [Fam1A.1 aminoacylation ribozyme variant]” the same measures were 2.94 and 2.31.
For “CAACUUCAAAGAAUCGGUCUG [Fam1A.1 aminoacylation ribozyme variant]”, the results for the self-aminoacylation in the data set with biotinyl-Phe-oxazolone and in the data set on biotinyl-Trp-oxazolone were 7.1 and 7.86, respectively.
On the same counts, the results for “CCAAACUUCAAGUAAUCGGUC [Fam1B.1 aminoacylation ribozyme variant]” are 10.5 and 7.85.
For “CCAACCUUCAAGCAAUCGGUC [Fam1B.1 aminoacylation ribozyme variant]” the same measures were 25.8 and 15.3.
For “CCACACUUCAAUCAAUCAGUC [Fam1B.1 aminoacylation ribozyme variant]” the same measures were 22.8 and 7.45.
With “CCACAGUUCAAACAAUCGGUC [Fam1B.1 aminoacylation ribozyme variant]”, the self-aminoacylation with biotinyl-Phe-oxazolone was 18.2; in the data set with biotinyl-Trp-oxazolone, 12.
On to “CCACGCUUCAAGUAAUCGGUC [Fam1B.1 aminoacylation ribozyme variant]”, for which the values for the self-aminoacylation with biotinyl-Phe-oxazolone and with biotinyl-Trp-oxazolone were 18.1 and 12.9, respectively.
For “CCACUCUUCAAGCAAUCGGUC [Fam1B.1 aminoacylation ribozyme variant]” the same measures were 32.1 and 15.1.
On the same counts, the results for “CCACUUCAAACAAUCGGUAUG [Fam1A.1 aminoacylation ribozyme variant]” are 21.3 and 12.7.
For “CCAGACUUCAAGAAAUCGGUC [Fam1B.1 aminoacylation ribozyme variant]” the same measures were 8.29 and 6.84.
Take “CCAGACUUCAAUCAAUCGGUC [Fam1B.1 aminoacylation ribozyme variant]”: the values for the self-aminoacylation in the data set on biotinyl-Phe-oxazolone and with biotinyl-Trp-oxazolone were 34.2 and 21.1, respectively.
Consider “CCAGCCUUCAAGCAAUCGGUC [Fam1B.1 aminoacylation ribozyme variant]”, for which the self-aminoacylation in the data set on biotinyl-Phe-oxazolone stood at 30.7; with biotinyl-Trp-oxazolone it was 21.3.
On the same counts, the results for “CGAAUUCAAACAAUCGGUCUG [Fam1A.1 aminoacylation ribozyme variant]” are 4.97 and 3.38.
For “CGACUUCAAACAAUCGGACUG [Fam1A.1 aminoacylation ribozyme variant]” the same measures were 6.95 and 3.53.
On the same counts, the results for “CGACUUCAAACAAUCGGUCCG [Fam1A.1 aminoacylation ribozyme variant]” are 4.63 and 4.64.
Regarding “CGUCACUUCAAGCAAUCGGUC [Fam1B.1 aminoacylation ribozyme variant]”, the figures for the self-aminoacylation in the data set on biotinyl-Phe-oxazolone and with biotinyl-Trp-oxazolone were 22 and 11.1, respectively.
For “CUACUUCAAAAAAUCGGGCUG [Fam1A.1 aminoacylation ribozyme variant]” the same measures were 3.05 and 3.06.
